# B1: full-length p115–GFP (wild type) [human] / Sec13 [human (endogenous in HEK293T)] (parent complex)
# chain 1: MNFLRGVMGGQSAGPQHTEAETIQKLCDRVASSTLLDDRRNAVRALKSLSKKYRLEVGIQAMEHLIHVLQTDRSDSEIIGYALDTLYNIISNEEEEEVEENSTRQSEDLGSQFTEIFIKQQENVTLLLSLLEEFDFHVRWPGVKLLTSLLKQLGPQVQQIILVSPMGVSRLMDLLADSREVIRNDGVLLLQALTRSNGAIQKIVAFENAFERLLDIISEEGNSDGGIVVEDCLILLQNLLKNNNSNQNFFKEGSYIQRMKPWFEVGDENSGWSAQKVTNLHLMLQLVRVLVSPTNPPGATSSCQKAMFQCGLLQQLCTILMATGVPADILTETINTVSEVIRGCQVNQDYFASVNAPSNPPRPAIVVLLMSMVNERQPFVLRCAVLYCFQCFLYKNQKGQGEIVSTLLPSTIDATGNSVSAGQLLCGGLFSTDSLSNWCAAVALAHALQENATQKEQLLRVQLATSIGNPPVSLLQQCTNILSQGSKIQTRVGLLMLLCTWLSNCPIAVTHFLHNSANVPFLTGQIAENLGEEEQLVQGLCALLLGISIYFNDNSLESYMKEKLKQLIEKRIGKENFIEKLGFISKHELYSRASQKPQPNFPSPEYMIFDHEFTKLVKELEGVITKAIYKSSEEDKKEEEVKKTLEQHDNIVTHYKNMIREQDLQLEELRQQVSTLKCQNEQLQTAVTQQVSQIQQHKDQYNLLKIQLGKDNQHQGSYSEGAQMNGIQPEEIGRLREEIEELKRNQELLQSQLTEKDSMIENMKSSQTSGTNEQSSAIVSARDSEQVAELKQELATLKSQLNSQSVEITKLQTEKQELLQKTEAFAKSVEVQGETETIIATKTTDVEGRLSALLQETKELKNEIKALSEERTAIKEQLDSSNSTIAILQTEKDKLELEITDSKKEQDDLLVLLADQDQKILSLKNKLKDLGHPVEEEDELESGDQEDEDDESEDPGKDLDHI
# chain 2: MVSVINTVDTSHEDMIHDAQMDYYGTRLATCSSDRSVKIFDVRNGGQILIADLRGHEGPVWQVAWAHPMYGNILASCSYDRKVIIWREENGTWEKSHEHAGHDSSVNSVCWAPHDYGLILACGSSDGAISLLTYTGEGQWEVKKINNAHTIGCNAVSWAPAVVPGSLIDHPSGQKPNYIKRFASGGCDNLIKLWKEEEDGQWKEEQKLEAHSDWVRDVAWAPSIGLPTSTIASCSQDGRVFIWTCDDASSNTWSPKLLHKFNDVVWHVSWSITANILAVSGGDNKVTLWKESVDGQWVCISDVNKGQGSVSASVTEGQQNEQ
# B2: full-length p115–GFP (wild type) [human] / endogenous Sec16A (HEK293T) [human (endogenous in HEK293T)] (parent complex)
# chain 1: B1 chain 1
# chain 2: MQPPPQTVPSGMAGPPPAGNPRSVFWASSPYRRRANNNAAVAPTTCPLQPVTDPFAFSRQALQSTPLGSSSKSSPPVLQGPAPAGFSQHPGLLVPHTHARDSSQGPCEPLPGPLTQPRAHASPFSGALTPSAPPGPEMNRSAEVGPSSEPEVQTLPYLPHYIPGVDPETSHGGHPHGNMPGLDRPLSRQNPHDGVVTPAASPSLPQPGLQMPGQWGPVQGGPQPSGQHRSPCPEGPVPSGVPCATSVPHFPTPSILHQGPGHEQHSPLVAPPAALPSDGRDEVSHLQSGSHLANNSDPESTFRQNPRIVNHWASPELRQNPGVKNEHRPASALVNPLARGDSPENRTHHPLGAGAGSGCAPLEADSGASGALAMFFQGGETENEENLSSEKAGLSGQADFDDFCSSPGLGRPPAPTHVGAGSLCQALLPGPSNEAAGDVWGDTASTGVPDASGSQYENVENLEFVQNQEVLPSEPLNLDPSSPSDQFRYGPLPGPAVPRHGAVCHTGAPDATLHTVHPDSVSSSYSSRSHGRLSGSARPQELVGTFIQQEVGKPEDEASGSFFKQIDSSPVGGETDETTVSQNYRGSVSQPSTPSPPKPTGIFQTSANSSFEPVKSHLVGVKPFEADRANVVGEVRETCVRQKQCRPAAALPDASPGNLEQPPDNMETLCAPQVCPLPLNSTTEAVHMLPHAGAPPLDTVYPAPEKRPSARTQGPVKCESPATTLWAQSELPDFGGNVLLAPAAPALYVCAKPQPPVVQPPEEAMSGQQSRNPSSAAPVQSRGGIGASENLENPPKMGEEEALQSQASSGYASLLSSPPTESLQNPPVLIAQPDHSYNLAQPINFSVSLSNSHEKNQSWREALVGDRPAVSSWALGGDSGENTSLSGIPTSSVLSLSLPSSVAQSNFPQGSGASEMVSNQPANLLVQPPSQPVPENLVPESQKDRKAGSALPGFANSPAGSTSVVLVPPAHGTLVPDGNKANHSSHQEDTYGALDFTLSRTLENPVNVYNPSHSDSLASQQSVASHPRQSGPGAPNLDRFYQQVTKDAQGQPGLERAQQELVPPQQQASPPQLPKAMFSELSNPESLPAQGQAQNSAQSPASLVLVDAGQQLPPRPPQSSSVSLVSSGSGQAAVPSEQPWPQPVPALAPGPPPQDLAAYYYYRPLYDAYQPQYSLPYPPEPGAASLYYQDVYSLYEPRYRPYDGAASAYAQNYRYPEPERPSSRASHSSERPPPRQGYPEGYYSSKSGWSSQSDYYASYYSSQYDYGDPGHWDRYHYSARVRDPRTYDRRYWCDAEYDAYRREHSAFGDRPEKRDNNWRYDPRFTGSFDDDPDPHRDPYGEEVDRRSVHSEHSARSLHSAHSLASRRSSLSSHSHQSQIYRSHNVAAGSYEAPLPPGSFHGDFAYGTYRSNFSSGPGFPEYGYPADTVWPAMEQVSSRPTSPEKFSVPHVCARFGPGGQLIKVIPNLPSEGQPALVEVHSMEALLQHTSEQEEMRAFPGPLAKDDTHKVDVINFAQNKAMKCLQNENLIDKESASLLWNFIVLLCRQNGTVVGTDIAELLLRDHRTVWLPGKSPNEANLIDFTNEAVEQVEEEESGEAQLSFLTGGPAAAASSLERETERFRELLLYGRKKDALESAMKNGLWGHALLLASKMDSRTHARVMTRFANSLPINDPLQTVYQLMSGRMPAASTCCGDEKWGDWRPHLAMVLSNLNNNMDVESRTMATMGDTLASRGLLDAAHFCYLMAQAGFGVYTKKTTKLVLIGSNHSLPFLKFATNEAIQRTEAYEYAQSLGAETCPLPSFQVFKFIYSCRLAEMGLATQAFHYCEAIAKSILTQPHLYSPVLISQLVQMASQLRLFDPQLKEKPEEESLAAPTWLVHLQQVERQIKEGAGVWHQDGALPQQCPGTPSSEMEQLDRPGLSQPGALGIANPLLAVPAPSPEHSSPSVRLLPSAPQTLPDGPLASPARVPMFPVPLPPGPLEPGPGCVTPGPALGFLEPSGPGLPPGVPPLQERRHLLQEARSPDPGIVPQEAPVGNSLSELSEENFDGKFANLTPSRTVPDSEAPPGWDRADSGPTQPPLSLSPAPETKRPGQAAKKETKEPKKGESWFFRWLPGKKKTEAYLPDDKNKSIVWDEKKNQWVNLNEPEEEKKAPPPPPTSMPKTVQAAPPALPGPPGAPVNMYSRRAAGTRARYVDVLNPSGTQRSEPALAPADFVAPLAPLPIPSNLFVPTPDAEEPQLPDGTGREGPAAARGLANPEPAPEPKVLSSAASLPGSELPSSRPEGSQGGELSRCSSMSSLSREVSQHFNQAPGDLPAAGGPPSGAMPFYNPAQLAQACATSGSSRLGRIGQRKHLVLN
# Variants of: B1
# Test: co-precipitation with p115–GFP, volcano plot of protein enrichment; HEK293T cells; means of biological triplicates; read off a plot
row,screen value,Variant
1,~5.8,chain 1 Q462D

# Variants of: B2
# Test: as above
row,screen value,Variant
1,~6.1,chain 1 Q462D

# From paper PMC7619307, “The Golgi vesicle tether p115 can bind directly to the ER exit site organiser Sec16A” (Journal of cell science, 2026)
